Article PMC4498918

Experiments:
Test in all cases: EMSA
[1] = system: δ2K242A (Streptococcus pyogenes plasmid pSM19035); conditions: EMSA: 50 mM Tris-HCl pH 7.5, 50 mM NaCl, 10 mM MgCl2 (buffer B; Fig 7 legend says buffer C), with or without 1 mM ATP or ADP, 15 min at 37°C, 0.1 nM DNA; 4 or …
[2] = system: δ2D211A (Streptococcus pyogenes plasmid pSM19035); conditions: EMSA: 50 mM Tris-HCl pH 7.5, 50 mM NaCl, 10 mM MgCl2 (buffer B; Fig 7 legend says buffer C), with or without 1 mM ATP or ADP, 15 min at 37°C, 0.1 nM DNA; 4 or …
[3] = system: δ2 (ParA-like) (Streptococcus pyogenes plasmid pSM19035); conditions: 1 mM ATP, 10 mM Mg2+; KDapp, cooperative; EMSA: 50 mM Tris-HCl pH 7.5, 50 mM NaCl, 10 mM MgCl2 (buffer B; Fig 7 legend says buffer C), with or without 1 mM ATP or ADP, 15 min at 37°C, 0.1 nM DNA; 4 or …
[4] = system: δ2D60A (Streptococcus pyogenes plasmid pSM19035); conditions: EMSA: 50 mM Tris-HCl pH 7.5, 50 mM NaCl, 10 mM MgCl2 (buffer B; Fig 7 legend says buffer C), with or without 1 mM ATP or ADP, 15 min at 37°C, 0.1 nM DNA; 4 or …

423-bp HindIII-KpnI parS2 DNA was tested, and the binding signal (fold lower binding than wt) [1] was 20, the binding signal (fold higher affinity than wt) [2] was > 6 and the Kd [3] was 140 nM. For the same substance, the binding signal (fold higher affinity than wt) [4] was 2.
